Patent US8647863

Test system: ParA resolvase
Assay: cell_activity
Details: complete recombination of pHCNparA and pSIPHCNparA into minicircle and miniplasmid 30 min after arabinose induction in E. coli; about 50% when resolvase was …

With “ParA resolution sites res1/res2 (in plasmids pHCNparA, pSIPHCNparA, pSIPresHCN)” as the substance, how does the activity read?
The activity was 100%.
